Data published in US20090288225A1, “Novel Aromatic Acyltransferase Genes” (Aomori Prefecture, priority 2006, published 2009).

How the values were obtained:
[1] = Acyltransferase activity of purified 3′AT, substrates preternatin C5 and 1-O-p-coumaroyl-β-D-glucose; format: biochemical, butterfly pea (Clitoria ternatea); details: 3′AT activity
Procedure: A reaction solution (20 μl) containing 100 mM phosphate buffer (pH 6.5), 0.4 mM anthocyanin (4 μl), 0.5 mM 1-O-acyl-β-D-glucose (4 μl) and an enzyme solution (8 μl) was reacted at 30° C. The reaction was terminated by adding 4 μl of 1M aqueous hydrochloric acid solution. After addition of 24 μl of 5% acetonitrile containing 0.05 M TFA, the reaction solution was filtered with Millex-LH filter (Millipore) and then analyzed by HPLC by feeding a 10 μl aliquot.
HPLC analysis of anthocyanin acyltransferase reaction products were performed with Develosil ODS-UG-5 column (3.0 i.d.×250 mm; Nomura Chemical) at a column temperature of 35° C. Against an initial solvent that was 0.05 M trifluoroacetate (TFA)-containing 5% acetonitrile (MeCN) aqueous solution, 0.05 M TFA-containing 40% MeCN was added with a linear concentration gradient from 14 to 86% (20 min) and the reaction products were eluted at a flow rate of 0.5 ml/min. The reaction products were detected with PDA and their molecular weights were confirmed by LC-MS/MS. […]

[2] = UDP-glucose:hydroxycinnamate 1-O-glucosyltransferase activity of recombinant proteins from E. coli; format: biochemical; details: against all four types of hydroxycinnamic acid used
Procedure: The transformed E. coli was shaking-cultured overnight in 3 ml of LB medium containing 50 μg/ml kanamycin and 34 μg/ml chloramphenicol. This culture broth (500 μl) was inoculated into LB medium (50 ml) and shaking-cultured until absorbance at 600 nm reached 0.4. Then, isopropyl-β-D-thiogalactoside (IPTG) was added to give a final concentration of 0.4 mM. The cells were shaking-cultured at 25° C. for 16 hr and then harvested by refrigerated centrifugation (8000 rpm, 4° C., 20 min). CtGT11-4 protein was partially purified from the cells using Ni-NTA mini-column according to the method recommended by the manufacturer. […]
For measuring enzyme activity, a 30 μl reaction solution containing 100 mM potassium phosphate buffer (pH 7.4), 30 pmole of UDP-glucose, 30 pmole of hydroxycinnamic acid and 15 μl of recombinant protein solution was reacted at 30° C. […] The enzyme reaction products were analyzed by reversed-phase high performance liquid chromatography (Shiseido NanoSpace system) using Develosil C30-UG-5 (1.5 i.d.×250 mm). […] The eluted materials were detected with a PDA detector, and the resultant data were analyzed to thereby quantitatively determine 1-O-acyl-β-D-glucose. […]
LeGT13-20 and LeGT13-30 genes were expressed using pET30Ek/LIC System (Novagen). […] Resultant several clones were analyzed to confirm the nucleotide sequences thereof, and then transformed into E. coli BL21-CodonPlus(DE3)-RP. […]

Molecule	specific activity [1]	glucosyltransferase activity [2]
3′AT protein: acyltransferase purified from butterfly pea petals, transfers aromatic acyl group to glucosyl group at position 3′ of anthocyanin (after Mono Q) (protein) GTIVEFLPGFDGPLPFVLETGYVGVGEGEDVQVFYYFVESENNPNEDPLMLWLTGGPGCSAFSGLALEIGPLIFKREEYNGGLPNLILRPHSWTKVSSIIFVDLPVSTGFTYARTDAAAQRSDWTLVHHAHEFLRKWLIDHPKFLQNELYIGGDSYSGIPIPVIVQEISQENEKGIQPWINLQGYILGNAITTRREKGYSIPFAHGMALISDELYESLRKNCKGEYLNVDPENVLCSRDIDSYSKATSRISFAHILERTCNSGDIKTSLRRSTIQRHHTKKFLNTNLKLPPLTCRTYANFQCGLWANDDNVRSALHIHKGSIGEWHRCSIRLPFTSDIPNSFEYHVNLSRKGYYRSLIYSGDHDMMVPFLGTQAWIRSLNYSIVDDWRPWNTNGQVAGYTRTYSNRMTYATIKGGGHTAPEFKPEECFAMYSRWISKRPLYENNTMSSYTNLASIL	1492.6 pkat/mg	
LeGT13-30: lobelia 1-O-acyl-β-D-glucose synthase, 486 amino acid residues, SEQ ID NO: 18 (protein, Lobelia erinus cv.Riviera Midnight Blue; Amino acid sequence of UDP-glucose hydroxycinnamic acid 1-O-glucosyltransferase) MGSLQGTTTVENLTHVFLVSFPGQGHVNPLLRLGKILASKGLLVTFSAPEMVGEIIKGANKYISDDELTPIGDGMIRFEFFSDSLGNTKEDNALRGNMDLYMPQLATFAKKSLSDILVKHQHHGRPVACLINNPFIPWISELAEEFNIPSAVLWVQSCASFSAYYHYHHNLVPFPTENEPERDVQLPSMPLLKYDEIPGFLLPSSPYGFLRRAILGQFKLLSKPICILVESFQELEDDCINYLSTLCPIKPIGPLFINPNVKTGSSIRGDFMKVEDCIDWLNTRADSSVVYISFGSIVYVKQEQITEIARGLADSGLSFLWAFKQPGVDMGLKPPSLPDGFLEEVKGRGKVVEWCSQEAVLGHPAVSCFMSHCGWNSTMEALSSGVPVAAFPIWGDQVTDAKFLVDEFKVGIRMCRGEADINKKVVPREEIARCLLAATSGPKAEELRRNALKWKKAAADSVGAGGSSDRNLEEFVGSIKKGVIGH		glucosyltransferase activity was confirmed
LeGT13-20: lobelia 1-O-acyl-β-D-glucose synthase, 486 amino acid residues, SEQ ID NO: 16 (protein, Lobelia erinus cv.Riviera Midnight Blue; Amino acid sequence of UDP-glucose hydroxycinnamic acid 1-O-glucosyltransferase) MGSLQGTTTVENLTHVFLVSFPGQGHVNPLLRLGKILAFKGLLVTFSAPEMVGEIIKGANKYISDDELTPIGDGMIRFEFFSDGLGNTKEDNSLRGNMDLYMPQLATFAKKSLSEILIKHEKHGRPVACLINNPFIPWISELAEEFNIPSAVLWVQSCASFSAYYHYHHGLVPFPTENEPERDVQLPNMPLLKYDEIPGFLLPSSPYGFLRRAILGQFKLLSKPICILVESFQELENDCINYLSTLCPIKPIGPLFSNPSVRNGSSIRGDFMKVEDCIDWLNTRADSSVVYVSFGSIVYVKQEQITEIARGLADSGLSFLWAFKQPGIDMGLTPPSLPDGFLEEVKGRGKVVEWCSQEAVLSHPAVSCFMSHCGWNSTMEALSSGVPVAAFPIWGDQVTDAKFLVDEFKVGIRMCRGEADINKKVVTREEIARCLLAATSGPKAEELKRNALKWKKAAADSVGAGGSSDRNLEEFVGSIRKDVVGH		glucosyltransferase activity was confirmed
